Biological target: the molecule itself
Experiment: negative-stain electron microscopy; 2D class averages of negatively stained purified protein; 3XFLAG-SHIP164_(Δ901-1099) at 50 nM, 2% uranyl acetate; the MBP fusion locates the N-termini at the two ends of the rod

Protein | stoichiometry N
MBP-SHIP164 fusion (MBP fused to the N-terminus of SHIP164_(Δ901–1099)) (natural protein, SHIP164 (UHRF1BP1L), human, codon-optimised ORF, lacking residues 901-1099; Probably expressed in Expi293F and purified like m1, and it may also carry a 3xFLAG tag) not shown | 2
3XFLAG-SHIP164^Δ901-1099 (natural protein, SHIP164 (UHRF1BP1L), human, codon-optimised ORF from Genscript, lacking the predicted unstructured segment residues 901-1099; also called 3×FLAG-SHIP164_(Δ901-1099); UHRF1BP1L; source: Expi293F, transfected, purified (anti-FLAG M2 resin, Superdex 200 gel filtration); not shown: 3xFLAG, N-terminal, kept) not shown | 2
